Measurements taken from publication PMC7017467, “Enhancement of bleomycin production in Streptomyces verticillus through global metabolic regulation of N-acetylglucosamine and assisted metabolic profiling analysis”.

Target: T1, DasR (Streptomyces verticillus ATCC 15003, UniProt A0A7M1Y6D7 1-256)
T1 sequence: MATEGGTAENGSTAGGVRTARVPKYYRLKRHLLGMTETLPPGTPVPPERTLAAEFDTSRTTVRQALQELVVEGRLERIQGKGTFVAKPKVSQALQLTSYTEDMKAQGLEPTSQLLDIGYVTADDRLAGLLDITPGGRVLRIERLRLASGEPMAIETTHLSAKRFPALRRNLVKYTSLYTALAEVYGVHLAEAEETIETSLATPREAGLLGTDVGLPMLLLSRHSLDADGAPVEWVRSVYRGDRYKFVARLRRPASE
Experiment: EMSA; EMSA buffer (composition, pH and temperature not given), 30 min incubation, 6% native polyacrylamide gel
Details: protein: recombinant, tags: C-terminal 6xHis (introduced by reverse primer), chain copies: 2, blunt

B1: PBlmR (dsDNA)
DNA 1: GAGAGCACTGTAAGCCCGAACCCGCAAGGATGACGAATTGCAAAATTGTGCAAGTCGCTACATGATGGTCCGGCTGTGCCCGCAGGTAGCCGCGGGCACAGCACCAGACGCTGCCTCCGCGCACCGCGCGGGAGGCCCGGTGAGGCGAGAGGCTGAGGTTCC
DNA 2: GGAACCTCAGCCTCTCGCCTCACCGGGCCTCCCGCGCGGTGCGCGGAGGCAGCGTCTGGTGCTGTGCCCGCGGCTACCTGCGGGCACAGCCGGACCATCATGTAGCGACTTGCACAATTTTGCAATTCGTCATCCTTGCGGGTTCGGGCTTACAGTGCTCTC
- binding result: no binding

B2: PDasA (dsDNA)
DNA 1: CCAAAAGGTCTAGGCCAAGCTGCGGGCACTGGTCTAAACCATTAAAGACCACTTTTCGGTCCTGAGGAGA
DNA 2: TCTCCTCAGGACCGAAAAGTGGTCTTTAATGGTTTAGACCAGTGCCCGCAGCTTGGCCTAGACCTTTTGG
- binding result (label: 5'-Cy5): binds
